Data on one molecule can be found in publication PMC11948038 (2025).

In this assay the target is cytochrome c (UniProt P99999 2-105). Briefly: NMR.
Sequence of cytochrome c (P99999 2-105): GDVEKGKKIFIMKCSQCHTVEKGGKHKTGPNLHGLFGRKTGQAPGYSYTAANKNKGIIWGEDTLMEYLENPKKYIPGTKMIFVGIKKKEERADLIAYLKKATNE

B1: full-length ANP32A (natural protein)
chain: MEMGRRIHLELRNRTPSDVKELVLDNSRSNEGKLEGLTDEFEELEFLSTINVGLTSIANLPKLNKLKKLELSDNRVSGGLEVLAEKCPNLTHLNLSGNKIKDLSTIEPLKKLENLKSLDLFNCEVTNLNDYRENVFKLLPQLTYLDGYDRDDKEAPDSDAEGYVEGLDDEEEDEDEEEYDEDAQVVEDEEDEDEEEEGEEEDVSGEEEEDEEGYNDGEVDDEEDEEELGEEERGQKRKREPEDEGEDDD
Broadly, the Kd is the free concentration of one partner at which half of the binding sites on the other are occupied at equilibrium, for simple one-to-one binding. High values mean a looser complex, low ones a tighter complex. As to B1, the Kd was 379 µM.
